Measurements published in patent US20250218531A1 (ABSCI, published 2025).
Numbering of substitutions follows the chain as printed.

B1: Trastuzumab HCDR3 variant ARYGGGYYYMDY (Fab, V domains shown)
VH: EVQLVESGGGLVQPGGSLRLSCAASGFNIKDTYIHWVRQAPGKGLEWVARIYPTNGYTRYADSVKGRFTISADTSKNTAYLQMNSLRAEDTAVYYCARYGGGYYYMDYWGQGTLVTVSS
VL: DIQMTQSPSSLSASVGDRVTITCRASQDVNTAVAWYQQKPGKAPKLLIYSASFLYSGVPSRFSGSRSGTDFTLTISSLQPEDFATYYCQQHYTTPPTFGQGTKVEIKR
B2: Trastuzumab HCDR3 variant AAYTNTFYYLVY (Fab, V domains shown)
VH: B1 VH with R98A, G100T, G101N, G102T, Y103F, M106L, D107V
VL: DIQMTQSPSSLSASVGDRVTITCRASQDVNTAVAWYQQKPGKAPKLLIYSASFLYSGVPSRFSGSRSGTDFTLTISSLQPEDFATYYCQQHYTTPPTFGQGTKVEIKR
B3: Trastuzumab HCDR3 variant AIYSDGAYFYGR (Fab, V domains shown)
VH: B1 VH with R98I, G100S, G101D, Y103A, Y105F, M106Y, D107G, Y108R
VL: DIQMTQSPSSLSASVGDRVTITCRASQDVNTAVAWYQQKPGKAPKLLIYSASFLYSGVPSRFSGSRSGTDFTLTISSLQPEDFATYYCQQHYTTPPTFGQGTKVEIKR
B4: Trastuzumab HCDR3 variant AKYGDDNYGFSH (Fab, V domains shown)
VH: B1 VH with R98K, G101D, G102D, Y103N, Y105G, M106F, D107S, Y108H
VL: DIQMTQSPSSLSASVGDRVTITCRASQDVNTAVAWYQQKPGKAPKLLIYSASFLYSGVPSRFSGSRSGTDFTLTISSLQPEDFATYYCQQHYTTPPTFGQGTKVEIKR
B5: Trastuzumab HCDR3 variant AKYGSNYYYLGS (Fab, V domains shown)
VH: B1 VH with R98K, G101S, G102N, M106L, D107G, Y108S
VL: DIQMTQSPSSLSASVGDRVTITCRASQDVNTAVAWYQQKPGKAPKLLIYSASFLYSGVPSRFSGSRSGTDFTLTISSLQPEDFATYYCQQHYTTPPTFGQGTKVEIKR
B6: Trastuzumab HCDR3 variant AKYSFGGYYYGD (Fab, V domains shown)
VH: B1 VH with R98K, G100S, G101F, Y103G, M106Y, D107G, Y108D
VL: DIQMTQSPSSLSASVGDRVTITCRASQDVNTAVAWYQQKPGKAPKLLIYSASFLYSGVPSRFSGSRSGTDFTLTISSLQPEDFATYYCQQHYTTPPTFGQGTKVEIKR
B7: Trastuzumab HCDR3 variant ALWGFGWYYFDY (Fab, V domains shown)
VH: B1 VH with R98L, Y99W, G101F, Y103W, M106F
VL: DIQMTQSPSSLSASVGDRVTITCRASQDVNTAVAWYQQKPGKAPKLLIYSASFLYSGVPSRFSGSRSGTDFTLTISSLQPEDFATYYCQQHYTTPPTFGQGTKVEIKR
B8: Trastuzumab HCDR3 variant ALYGNYSYGFAR (Fab, V domains shown)
VH: B1 VH with R98L, G101N, G102Y, Y103S, Y105G, M106F, D107A, Y108R
VL: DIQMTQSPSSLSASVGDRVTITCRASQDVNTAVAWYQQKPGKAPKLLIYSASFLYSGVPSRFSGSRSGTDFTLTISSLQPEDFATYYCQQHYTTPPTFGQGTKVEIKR
B9: Trastuzumab HCDR3 variant ALYNYYYYAFGF (Fab, V domains shown)
VH: B1 VH with R98L, G100N, G101Y, G102Y, Y105A, M106F, D107G, Y108F
VL: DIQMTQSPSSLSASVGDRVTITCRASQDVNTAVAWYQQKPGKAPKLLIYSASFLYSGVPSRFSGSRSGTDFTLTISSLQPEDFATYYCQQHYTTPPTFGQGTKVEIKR
B10: Trastuzumab HCDR3 variant ARFGGYYYYFDY (Fab, V domains shown)
VH: B1 VH with Y99F, G102Y, M106F
VL: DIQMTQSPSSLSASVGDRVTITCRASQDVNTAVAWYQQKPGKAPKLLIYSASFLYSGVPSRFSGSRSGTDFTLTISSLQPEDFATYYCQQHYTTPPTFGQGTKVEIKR
B11: Trastuzumab HCDR3 variant ARFGNSGYQFDY (Fab, V domains shown)
VH: B1 VH with Y99F, G101N, G102S, Y103G, Y105Q, M106F
VL: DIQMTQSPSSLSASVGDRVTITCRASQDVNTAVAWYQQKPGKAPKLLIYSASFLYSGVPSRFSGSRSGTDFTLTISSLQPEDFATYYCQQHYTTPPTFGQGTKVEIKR
B12: Trastuzumab HCDR3 variant ARFGSYYYYFDY (Fab, V domains shown)
VH: B1 VH with Y99F, G101S, G102Y, M106F
VL: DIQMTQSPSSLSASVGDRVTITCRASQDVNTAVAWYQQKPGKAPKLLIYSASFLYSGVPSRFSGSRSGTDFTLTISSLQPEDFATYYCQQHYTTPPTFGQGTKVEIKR
B13: Trastuzumab HCDR3 variant ARWAGDYYVMDY (Fab, V domains shown)
VH: B1 VH with Y99W, G100A, G102D, Y105V
VL: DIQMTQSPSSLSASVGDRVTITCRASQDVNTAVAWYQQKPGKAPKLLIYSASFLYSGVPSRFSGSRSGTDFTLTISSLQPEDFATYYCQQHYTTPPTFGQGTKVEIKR
B14: Trastuzumab HCDR3 variant ARWFGGYYHMDY (Fab, V domains shown)
VH: B1 VH with Y99W, G100F, Y105H
VL: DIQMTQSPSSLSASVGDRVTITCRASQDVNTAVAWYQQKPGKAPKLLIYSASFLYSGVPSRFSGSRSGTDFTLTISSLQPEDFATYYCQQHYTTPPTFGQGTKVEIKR
B15: Trastuzumab HCDR3 variant ARWFYDYYYMDY (Fab, V domains shown)
VH: B1 VH with Y99W, G100F, G101Y, G102D
VL: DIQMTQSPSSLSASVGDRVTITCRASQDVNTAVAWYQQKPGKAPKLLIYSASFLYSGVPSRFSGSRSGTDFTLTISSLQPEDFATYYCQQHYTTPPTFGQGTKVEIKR
B16: Trastuzumab HCDR3 variant ARWGDGYYYMDY (Fab, V domains shown)
VH: B1 VH with Y99W, G101D
VL: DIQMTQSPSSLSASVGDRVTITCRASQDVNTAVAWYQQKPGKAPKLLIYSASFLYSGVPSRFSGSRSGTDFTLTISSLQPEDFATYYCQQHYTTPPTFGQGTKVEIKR
B17: Trastuzumab HCDR3 variant ARWGDYYYYMDY (Fab, V domains shown)
VH: B1 VH with Y99W, G101D, G102Y
VL: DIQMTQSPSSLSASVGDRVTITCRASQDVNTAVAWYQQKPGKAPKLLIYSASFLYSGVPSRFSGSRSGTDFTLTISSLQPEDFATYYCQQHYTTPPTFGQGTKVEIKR
B18: Trastuzumab HCDR3 variant ARWGFSMYSFDY (Fab, V domains shown)
VH: B1 VH with Y99W, G101F, G102S, Y103M, Y105S, M106F
VL: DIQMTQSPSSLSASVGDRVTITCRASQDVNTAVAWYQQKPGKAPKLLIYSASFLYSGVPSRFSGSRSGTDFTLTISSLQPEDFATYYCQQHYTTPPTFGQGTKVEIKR
B19: Trastuzumab HCDR3 variant ARWGGDFYAMDY (Fab, V domains shown)
VH: B1 VH with Y99W, G102D, Y103F, Y105A
VL: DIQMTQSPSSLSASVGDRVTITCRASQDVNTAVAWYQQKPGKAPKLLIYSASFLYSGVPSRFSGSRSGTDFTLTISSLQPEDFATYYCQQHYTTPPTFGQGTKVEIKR
B20: Trastuzumab HCDR3 variant ARWGGNYYYMDY (Fab, V domains shown)
VH: B1 VH with Y99W, G102N
VL: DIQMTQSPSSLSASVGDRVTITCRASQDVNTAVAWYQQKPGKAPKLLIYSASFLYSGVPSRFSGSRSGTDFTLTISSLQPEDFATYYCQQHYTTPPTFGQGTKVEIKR
B21: Trastuzumab HCDR3 variant ARWGGYYYYFDV (Fab, V domains shown)
VH: B1 VH with Y99W, G102Y, M106F, Y108V
VL: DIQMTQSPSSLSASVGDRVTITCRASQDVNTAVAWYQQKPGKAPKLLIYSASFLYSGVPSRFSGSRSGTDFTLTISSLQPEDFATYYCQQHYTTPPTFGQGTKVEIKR
B22: Trastuzumab HCDR3 variant ARWGGYYYYFDY (Fab, V domains shown)
VH: B1 VH with Y99W, G102Y, M106F
VL: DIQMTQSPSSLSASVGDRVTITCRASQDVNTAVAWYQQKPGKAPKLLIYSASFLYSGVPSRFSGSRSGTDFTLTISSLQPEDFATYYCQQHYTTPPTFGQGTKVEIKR
B23: Trastuzumab HCDR3 variant ARWGGYYYYMDY (Fab, V domains shown)
VH: B1 VH with Y99W, G102Y
VL: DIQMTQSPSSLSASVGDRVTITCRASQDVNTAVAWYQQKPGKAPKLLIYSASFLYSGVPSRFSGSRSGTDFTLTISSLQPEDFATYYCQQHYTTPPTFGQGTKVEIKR
B24: Trastuzumab HCDR3 variant ARWGNYYYYMDY (Fab, V domains shown)
VH: B1 VH with Y99W, G101N, G102Y
VL: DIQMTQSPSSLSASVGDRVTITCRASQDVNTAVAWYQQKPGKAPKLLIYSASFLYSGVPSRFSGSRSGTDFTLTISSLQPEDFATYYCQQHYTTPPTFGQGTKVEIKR
B25: Trastuzumab HCDR3 variant ARWGSGYYYMDY (Fab, V domains shown)
VH: B1 VH with Y99W, G101S
VL: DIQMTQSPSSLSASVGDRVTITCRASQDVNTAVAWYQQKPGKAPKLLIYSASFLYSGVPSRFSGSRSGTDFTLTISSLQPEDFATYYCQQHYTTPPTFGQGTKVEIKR
B26: Trastuzumab HCDR3 variant ARWGYDYYYFAY (Fab, V domains shown)
VH: B1 VH with Y99W, G101Y, G102D, M106F, D107A
VL: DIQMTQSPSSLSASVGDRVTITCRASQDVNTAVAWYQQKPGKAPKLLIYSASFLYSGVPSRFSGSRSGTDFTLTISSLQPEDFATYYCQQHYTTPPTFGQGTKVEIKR
B27: Trastuzumab HCDR3 variant ARWGYGYYYFDY (Fab, V domains shown)
VH: B1 VH with Y99W, G101Y, M106F
VL: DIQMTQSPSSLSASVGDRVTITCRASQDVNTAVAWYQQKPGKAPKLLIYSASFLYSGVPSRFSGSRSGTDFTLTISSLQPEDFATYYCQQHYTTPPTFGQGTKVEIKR
B28: Trastuzumab HCDR3 variant ARWGYYYYAMDY (Fab, V domains shown)
VH: B1 VH with Y99W, G101Y, G102Y, Y105A
VL: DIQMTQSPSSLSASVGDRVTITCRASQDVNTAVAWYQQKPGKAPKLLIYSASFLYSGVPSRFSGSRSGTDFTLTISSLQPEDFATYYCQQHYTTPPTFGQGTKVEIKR
B29: Trastuzumab HCDR3 variant ARWGYYYYYMDY (Fab, V domains shown)
VH: B1 VH with Y99W, G101Y, G102Y
VL: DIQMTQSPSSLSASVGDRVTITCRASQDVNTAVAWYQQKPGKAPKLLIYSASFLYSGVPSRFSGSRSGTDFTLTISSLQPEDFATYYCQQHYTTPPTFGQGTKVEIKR
B30: Trastuzumab HCDR3 variant ARWLAYWYAMDY (Fab, V domains shown)
VH: B1 VH with Y99W, G100L, G101A, G102Y, Y103W, Y105A
VL: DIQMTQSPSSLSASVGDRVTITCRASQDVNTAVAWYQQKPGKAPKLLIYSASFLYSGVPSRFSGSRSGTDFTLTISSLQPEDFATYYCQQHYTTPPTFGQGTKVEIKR
B31: Trastuzumab HCDR3 variant ARWPGGYYHMDY (Fab, V domains shown)
VH: B1 VH with Y99W, G100P, Y105H
VL: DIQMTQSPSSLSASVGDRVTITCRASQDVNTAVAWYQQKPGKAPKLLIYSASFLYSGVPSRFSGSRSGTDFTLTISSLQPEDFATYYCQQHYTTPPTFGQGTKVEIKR
B32: Trastuzumab HCDR3 variant ARWQGGYYYWDF (Fab, V domains shown)
VH: B1 VH with Y99W, G100Q, M106W, Y108F
VL: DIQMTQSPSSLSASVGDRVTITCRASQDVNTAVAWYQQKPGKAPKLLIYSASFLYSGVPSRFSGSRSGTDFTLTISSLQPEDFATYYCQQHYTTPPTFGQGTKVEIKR
B33: Trastuzumab HCDR3 variant ARWSSGYYYMDY (Fab, V domains shown)
VH: B1 VH with Y99W, G100S, G101S
VL: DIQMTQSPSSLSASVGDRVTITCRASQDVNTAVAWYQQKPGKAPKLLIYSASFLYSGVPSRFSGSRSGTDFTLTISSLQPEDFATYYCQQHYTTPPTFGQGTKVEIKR
B34: Trastuzumab HCDR3 variant ARWSYGYYNFDY (Fab, V domains shown)
VH: B1 VH with Y99W, G100S, G101Y, Y105N, M106F
VL: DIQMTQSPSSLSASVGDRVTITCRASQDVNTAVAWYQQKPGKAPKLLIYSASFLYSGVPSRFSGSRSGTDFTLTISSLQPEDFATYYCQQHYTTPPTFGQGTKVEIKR
B35: Trastuzumab HCDR3 variant ARWYGAYYHMDY (Fab, V domains shown)
VH: B1 VH with Y99W, G100Y, G102A, Y105H
VL: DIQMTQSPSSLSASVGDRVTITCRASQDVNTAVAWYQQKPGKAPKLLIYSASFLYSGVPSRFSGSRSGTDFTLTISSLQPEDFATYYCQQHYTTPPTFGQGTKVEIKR
B36: Trastuzumab HCDR3 variant ARWYGGYYHHDY (Fab, V domains shown)
VH: B1 VH with Y99W, G100Y, Y105H, M106H
VL: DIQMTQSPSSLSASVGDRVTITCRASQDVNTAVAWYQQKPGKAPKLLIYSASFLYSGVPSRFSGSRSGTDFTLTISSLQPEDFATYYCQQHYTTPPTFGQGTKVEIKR
B37: Trastuzumab HCDR3 variant ARWYGGYYMYDY (Fab, V domains shown)
VH: B1 VH with Y99W, G100Y, Y105M, M106Y
VL: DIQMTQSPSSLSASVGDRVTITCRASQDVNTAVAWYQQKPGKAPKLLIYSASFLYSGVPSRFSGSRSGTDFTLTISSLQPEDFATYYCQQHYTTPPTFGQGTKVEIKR
B38: Trastuzumab HCDR3 variant ARWYGYYYYFDV (Fab, V domains shown)
VH: B1 VH with Y99W, G100Y, G102Y, M106F, Y108V
VL: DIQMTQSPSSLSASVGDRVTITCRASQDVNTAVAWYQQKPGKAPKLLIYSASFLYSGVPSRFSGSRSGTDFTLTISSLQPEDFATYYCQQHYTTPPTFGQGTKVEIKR
B39: Trastuzumab HCDR3 variant ARWYYDYYYMDY (Fab, V domains shown)
VH: B1 VH with Y99W, G100Y, G101Y, G102D
VL: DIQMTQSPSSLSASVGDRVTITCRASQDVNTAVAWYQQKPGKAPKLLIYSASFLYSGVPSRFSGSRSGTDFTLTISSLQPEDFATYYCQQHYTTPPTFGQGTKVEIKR

Target: T1, HER2 (human epidermal growth factor receptor 2) (human, UniProt P04626 23-629)
T1 construct: also called Antigen: HER2
Assay: SPR

| Binder | Kd | log(KD (M)) |
| --- | --- | --- |
| B1 | 0.0133 µM | -7.88 |
| B2 | 0.0198 µM | -7.7 |
| B3 | 0.0106 µM | -7.98 |
| B4 | 0.0154 µM | -7.81 |
| B5 | 0.0187 µM | -7.73 |
| B6 | 0.0191 µM | -7.72 |
| B7 | 0.00531 µM | -8.28 |
| B8 | 0.0126 µM | -7.9 |
| B9 | 0.0206 µM | -7.69 |
| B10 | 0.0235 µM | -7.63 |
| B11 | 0.0105 µM | -7.98 |
| B12 | 0.013 µM | -7.89 |
| B13 | 0.00768 µM | -8.11 |
| B14 | 0.00852 µM | -8.07 |
| B15 | 0.0126 µM | -7.9 |
| B16 | 0.00557 µM | -8.25 |
| B17 | 0.00236 µM | -8.63 |
| B18 | 0.0075 µM | -8.12 |
| B19 | 0.00949 µM | -8.02 |
| B20 | 0.00422 µM | -8.37 |

| Binder | Kd | log(KD (M)) |
| --- | --- | --- |
| B21 | 0.013 µM | -7.89 |
| B22 | 0.0128 µM | -7.89 |
| B23 | 0.00362 µM | -8.44 |
| B24 | 0.00169 µM | -8.77 |
| B25 | 0.00446 µM | -8.35 |
| B26 | 0.0265 µM | -7.58 |
| B27 | 0.0252 µM | -7.6 |
| B28 | 0.0226 µM | -7.65 |
| B29 | 0.00228 µM | -8.64 |
| B30 | 0.00355 µM | -8.45 |
| B31 | 0.00849 µM | -8.07 |
| B32 | 0.0138 µM | -7.86 |
| B33 | 0.012 µM | -7.92 |
| B34 | 0.00198 µM | -8.7 |
| B35 | 0.00559 µM | -8.25 |
| B36 | 0.00857 µM | -8.07 |
| B37 | 0.0191 µM | -7.72 |
| B38 | 0.0112 µM | -7.95 |
| B39 | 0.0139 µM | -7.86 |
